From patent US20150065381A1
Several values for one entry are separate records, joined by “and”; a condition that tells them apart may be missing. Equal values may be shown once.

Key:
[1] = molecular target: HIV-1 envelope of gp160 clone B-Acute-010.c08 (HIV-1); assay: capture ELISA, plate 1, mAb 0.3 ug/ml
[2] = molecular target: HIV-1 envelope of gp160 clone AG-010.c14 (HIV-1); assay: capture ELISA, plate 1, mAb 0.3 ug/ml
[3] = molecular target: HIV-1 envelope of gp160 clone B-Acute-009-c08 (HIV-1); assay: capture ELISA, plate 1, mAb 0.3 ug/ml
[4] = molecular target: HIV-1 envelope of gp160 clone B-Chronic-014.c02 (HIV-1); assay: capture ELISA, plate 1, mAb 0.3 ug/ml
[5] = molecular target: HIV-1 envelope clone G-011.c05 (multiclade gp160 clone panel) (HIV-1); assay: capture ELISA, plate 1, mAb 0.3 ug/ml
[6] = molecular target: HIV-1 envelope clone F1-002.c16 (multiclade gp160 clone panel) (HIV-1); assay: capture ELISA, plate 1, mAb 0.3 ug/ml
[7] = molecular target: aMLV envelope (from lysed pseudovirus); assay: antigen capture ELISA, mAb 0.3 ug/ml, plate 1
[8] = molecular target: BG505 envelope (gp120 monomer released from lysed pseudovirus) (HIV-1); assay: antigen capture ELISA, mAb 0.3 ug/ml, plate 1
[9] = molecular target: HIV-1 16055 envelope (HIV-1); assay: capture ELISA, plate 2, mAb 7.5 ug/ml
[10] = molecular target: HIV-1 envelope of gp160 clone B-Acute-010.c08 (HIV-1); assay: capture ELISA, plate 2, mAb 7.5 ug/ml
[11] = molecular target: HIV-1 envelope clone F1-002.c16 (multiclade gp160 clone panel) (HIV-1); assay: capture ELISA, plate 2, mAb 7.5 ug/ml
[12] = molecular target: HIV-1 JRCSF envelope (HIV-1) (UniProt P20871); assay: capture ELISA, plate 2, mAb 7.5 ug/ml
[13] = molecular target: aMLV envelope (from lysed pseudovirus); assay: antigen capture ELISA, mAb 2.5 ug/ml, plate 1
[14] = molecular target: BG505 envelope (gp120 monomer released from lysed pseudovirus) (HIV-1); assay: antigen capture ELISA, mAb 2.5 ug/ml, plate 1
[15] = molecular target: HIV-1 envelope clone F1-002.c11 (multiclade gp160 clone panel) (HIV-1); assay: capture ELISA, plate 2, mAb 0.8 ug/ml
[16] = molecular target: HIV-1 16055 envelope (HIV-1); assay: capture ELISA, plate 2, mAb 0.8 ug/ml
[17] = molecular target: HIV-1 envelope of gp160 clone B-Acute-010.c08 (HIV-1); assay: capture ELISA, plate 2, mAb 0.8 ug/ml
[18] = molecular target: HIV-1 envelope of gp160 clone AG-010.c14 (HIV-1); assay: capture ELISA, plate 2, mAb 0.8 ug/ml
[19] = molecular target: HIV-1 envelope of gp160 clone AG-010.c11 (HIV-1); assay: capture ELISA, plate 2, mAb 0.8 ug/ml
[20] = molecular target: HIV-1 envelope of gp160 clone B-Acute-009-c08 (HIV-1); assay: capture ELISA, plate 2, mAb 0.8 ug/ml
[21] = molecular target: HIV-1 envelope of gp160 clone B-Acute-010.c09 (HIV-1); assay: capture ELISA, plate 2, mAb 0.8 ug/ml
[22] = molecular target: HIV-1 envelope of gp160 clone B-Chronic-014.c02 (HIV-1); assay: capture ELISA, plate 2, mAb 0.8 ug/ml
[23] = molecular target: HIV-1 envelope clone BF-002.c08 (multiclade gp160 clone panel) (HIV-1); assay: capture ELISA, plate 2, mAb 0.8 ug/ml
[24] = molecular target: HIV-1 envelope clone BF-002.c05 (multiclade gp160 clone panel) (HIV-1); assay: capture ELISA, plate 2, mAb 0.8 ug/ml
[25] = molecular target: HIV-1 envelope of gp160 clone B-Acute-008.c11 (HIV-1); assay: capture ELISA, plate 2, mAb 0.8 ug/ml
[26] = molecular target: HIV-1 envelope clone G-011.c05 (multiclade gp160 clone panel) (HIV-1); assay: capture ELISA, plate 2, mAb 0.8 ug/ml
[27] = molecular target: HIV-1 envelope clone G-011.c02 (multiclade gp160 clone panel) (HIV-1); assay: capture ELISA, plate 2, mAb 0.8 ug/ml
[28] = molecular target: HIV-1 envelope clone F1-002.c16 (multiclade gp160 clone panel) (HIV-1); assay: capture ELISA, plate 2, mAb 0.8 ug/ml
[29] = molecular target: HIV-1 JRFL envelope (HIV-1); assay: capture ELISA, plate 2, mAb 0.8 ug/ml
[30] = molecular target: HIV-1 JRCSF envelope (HIV-1) (UniProt P20871); assay: capture ELISA, plate 2, mAb 0.8 ug/ml
[31] = molecular target: HIV-1 envelope of gp160 clone B-Acute-010.c08 (HIV-1); assay: cell-based or functional assay
[32] = molecular target: HIV-1 envelope of gp160 clone AG-010.c14 (HIV-1); assay: cell-based or functional assay
[33] = molecular target: HIV-1 envelope of gp160 clone AG-010.c11 (HIV-1); assay: cell-based or functional assay
[34] = molecular target: HIV-1 envelope of gp160 clone B-Acute-009-c08 (HIV-1); assay: cell-based or functional assay
[35] = molecular target: HIV-1 envelope of gp160 clone B-Acute-010.c09 (HIV-1); assay: cell-based or functional assay
[36] = molecular target: HIV-1 envelope of gp160 clone B-Chronic-014.c02 (HIV-1); assay: cell-based or functional assay
[37] = molecular target: HIV-1 envelope of gp160 clone B-Acute-008.c11 (HIV-1); assay: cell-based or functional assay
[38] = molecular target: HIV-1 envelope clone G-011.c05 (multiclade gp160 clone panel) (HIV-1); assay: cell-based or functional assay
[39] = molecular target: HIV-1 envelope clone G-011.c02 (multiclade gp160 clone panel) (HIV-1); assay: cell-based or functional assay
[40] = molecular target: HIV-1 JRCSF envelope (HIV-1) (UniProt P20871); assay: cell-based or functional assay

Substance	ELISA OD [1] [OD]	ELISA OD [2] [OD]	ELISA OD [3] [OD]	ELISA OD [5] [OD]	ELISA OD [7]	ELISA OD [8] [OD]	ELISA OD [10] [OD]	ELISA OD [12]	ELISA OD [13]	ELISA OD [14] [OD]	ELISA OD [17] [OD]	ELISA OD [18] [OD]	ELISA OD [19] [OD]	ELISA OD [20] [OD]	ELISA OD [21] [OD]	ELISA OD [22] [OD]	ELISA OD [25] [OD]	ELISA OD [26] [OD]	ELISA OD [27] [OD]	ELISA OD [30]	further results
PGT151 (antibody)	0.104	0.118	0.085	0.064	0.068 OD and 0.057 OD	0.057	0.21	0.098 OD and 0.121 OD	0.068 OD and 0.053 OD	0.063	0.135	0.131	0.061	0.082	0.087	0.2	0.203	0.079	0.081	0.064 OD and 0.055 OD	ELISA OD [4]: 0.195 OD; ELISA OD [6]: 0.062 OD; ELISA OD [9]: 0.119 OD and 0.118 OD; ELISA OD [11]: 0.138 OD; ELISA OD [15]: 0.072 OD; ELISA OD [16]: 0.06 OD; ELISA OD [23]: 0.054 OD; ELISA OD [24]: 0.133 OD; ELISA OD [28]: 0.082 OD; ELISA OD [29]: 0.077 OD and 0.054 OD
PGV04 (antibody)	0.287	0.093	0.07	0.08	0.052 OD and 0.057 OD	0.45	3.25	2.78 OD and 2.65 OD	0.056 OD and 0.073 OD	1.04	0.659	0.169	0.103	0.095	0.913	3.37	0.094	0.168	0.326	1.03 OD and 1.35 OD	ELISA OD [6]: 0.083 OD; ELISA OD [11]: 0.626 OD; ELISA OD [15]: 0.084 OD; ELISA OD [23]: 1.37 OD; ELISA OD [24]: 2.07 OD; ELISA OD [28]: 0.139 OD
PGT145 (antibody)	0.081	0.055	0.058	0.076	0.057 OD and 0.116 OD	0.066	0.276	0.111 OD and 0.089 OD	0.062 OD and 0.068 OD	0.077	0.125	0.074	0.074	0.178	0.065	0.059	0.095	0.096	0.071	0.087 OD and 0.063 OD	ELISA OD [4]: 0.056 OD; ELISA OD [6]: 0.164 OD; ELISA OD [9]: 0.117 OD and 0.09 OD; ELISA OD [11]: 0.518 OD; ELISA OD [15]: 0.067 OD; ELISA OD [16]: 0.067 OD and 0.064 OD; ELISA OD [23]: 0.057 OD; ELISA OD [24]: 0.192 OD; ELISA OD [28]: 0.375 OD; ELISA OD [29]: 0.062 OD and 0.054 OD; PGT145 IC50 [31]: 0.032 µg/mL; PGT145 IC50 [32]: > 50 µg/mL; PGT145 IC50 [33]: 8.27 µg/mL; PGT145 IC50 [34]: 0.007 µg/mL; PGT145 IC50 [35]: 0.294 µg/mL; PGT145 IC50 [36]: 2.22 µg/mL; PGT145 IC50 [37]: 8.2 µg/mL; PGT145 IC50 [38]: 0.115 µg/mL; PGT145 IC50 [39]: 1.8 µg/mL; PGT145 IC50 [40]: 0.003 µg/mL
PG16 (antibody)	0.083	0.265	0.053	0.085	0.053 OD and 0.096 OD	0.067	0.301	0.226 OD and 0.245 OD	0.063 OD and 0.072 OD	0.103	0.132	0.51	0.173	0.058	0.105	0.318	0.146	0.097	0.062	0.135 OD and 0.136 OD	ELISA OD [4]: 0.288 OD; ELISA OD [6]: 0.229 OD; ELISA OD [11]: 0.217 OD; ELISA OD [15]: 0.12 OD; ELISA OD [23]: 0.103 OD; ELISA OD [24]: 0.586 OD; ELISA OD [28]: 0.302 OD; PG16 [31]: 0.015 µg/mL; PG16 [32]: 0.007 µg/mL; PG16 [33]: 0.031 µg/mL; PG16 [34]: 0.202 µg/mL; PG16 [35]: 1.21 µg/mL; PG16 [36]: 0.037 µg/mL; PG16 [37]: 5.3 µg/mL; PG16 [38]: 0.024 µg/mL; PG16 [39]: > 50 µg/mL; PG16 [40]: 0 µg/mL
PG9 (antibody)	0.089	0.339	0.062	0.104	0.068 OD and 0.067 OD	0.162	0.33	0.211 OD and 0.205 OD	0.068 OD and 0.067 OD	0.346	0.125	0.528	0.411	0.062	0.067	0.768	0.11	0.116	0.052	0.146 OD and 0.147 OD	ELISA OD [4]: 0.564 OD; ELISA OD [9]: 0.263 OD and 0.251 OD; ELISA OD [16]: 0.169 OD and 0.18 OD; ELISA OD [29]: 0.06 OD and 0.05 OD; PG9 IC50 [31]: 0.147 µg/mL; PG9 IC50 [32]: 0.035 µg/mL; PG9 IC50 [33]: 0.104 µg/mL; PG9 IC50 [34]: 0.288 µg/mL; PG9 IC50 [35]: 22.2 µg/mL; PG9 IC50 [36]: 0.039 µg/mL; PG9 IC50 [37]: 0.396 µg/mL; PG9 IC50 [38]: 0.098 µg/mL; PG9 IC50 [39]: > 50 µg/mL; PG9 IC50 [40]: 0.002 µg/mL
